# Where a chain is given by its changes, count along the chain named. Names may count otherwise. “Also recorded” adds a separate entry of the source. Read-outs that look alike come from different tables or passages of the source.
# T1: Zymomonas mobilis ribitol dehydrogenase, wild-type, SEQ ID NO: 4 (Zymomonas mobilis, UniProt Q5NQS1)
# T1 sequence (Q5NQS1 74-338): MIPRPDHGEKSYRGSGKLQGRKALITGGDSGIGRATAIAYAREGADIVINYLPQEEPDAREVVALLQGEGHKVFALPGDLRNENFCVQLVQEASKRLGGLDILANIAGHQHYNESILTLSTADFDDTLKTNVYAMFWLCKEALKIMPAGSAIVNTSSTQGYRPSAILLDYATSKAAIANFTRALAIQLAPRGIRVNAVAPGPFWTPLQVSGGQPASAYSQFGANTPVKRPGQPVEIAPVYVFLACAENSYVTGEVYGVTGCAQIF
# B1: Zymomonas mobilis ribitol dehydrogenase (SEQ ID NO: 4) variant S156C (Zymomonas mobilis subsp. mobilis ZM4 = ATCC 31821; S229C) (protein)
# chain: T1 sequence (Q5NQS1 74-338) with S156C
# B2: Zymomonas mobilis ribitol dehydrogenase (SEQ ID NO: 4) variant S156D, SEQ ID NO: 5 (Zymomonas mobilis subsp. mobilis ZM4 = ATCC 31821; N321D/S229D) (protein)
# chain: T1 sequence (Q5NQS1 74-338) with S156D, N248D
# B3: Zymomonas mobilis ribitol dehydrogenase (SEQ ID NO: 4) variant S156G (Zymomonas mobilis subsp. mobilis ZM4 = ATCC 31821; S229G) (protein)
# chain: T1 sequence (Q5NQS1 74-338) with S156G
# B4: S156D: mutant in which serine at position 156 of SEQ ID NO: 4 is substituted with aspartic acid (SEQ ID NO: 5) (protein)
# chain: T1 sequence (Q5NQS1 74-338) with S156D, N248D
# modifications: mutant
# B5: Zymomonas mobilis ribitol dehydrogenase (SEQ ID NO: 4) variant S156A (Zymomonas mobilis subsp. mobilis ZM4 = ATCC 31821; S229A) (protein)
# chain: T1 sequence (Q5NQS1 74-338) with S156A
# B6: Zymomonas mobilis ribitol dehydrogenase (SEQ ID NO: 4) variant S156T (Zymomonas mobilis subsp. mobilis ZM4 = ATCC 31821; S229T) (protein)
# chain: T1 sequence (Q5NQS1 74-338) with S156T
# B7: Zymomonas mobilis ribitol dehydrogenase (SEQ ID NO: 4) variant S156E (Zymomonas mobilis subsp. mobilis ZM4 = ATCC 31821; S229E) (protein)
# chain: T1 sequence (Q5NQS1 74-338) with S156E
# B8: Zymomonas mobilis ribitol dehydrogenase (SEQ ID NO: 4) variant S156W (Zymomonas mobilis subsp. mobilis ZM4 = ATCC 31821; S229W) (protein)
# chain: T1 sequence (Q5NQS1 74-338) with S156W
# B9: Zymomonas mobilis ribitol dehydrogenase (SEQ ID NO: 4) variant S156Y (Zymomonas mobilis subsp. mobilis ZM4 = ATCC 31821; S229Y) (protein)
# chain: T1 sequence (Q5NQS1 74-338) with S156Y
# Assays:
# ribitol dehydrogenase = type: biochemical, Zymomonas mobilis
# [1] = molecular target: T1, Zymomonas mobilis ribitol dehydrogenase, wild-type, SEQ ID NO: 4; assay: Dynamical (kinetic) parameters of ribitol dehydrogenase to coenzyme NAD(H)/NADP(H), wild-type; type: biochemical; conditions: NADP 0.01 to 3 mM
# Method: The optimum pH on dehydrogenation activity of the ribitol dehydrogenase was measured using 20 mM of Tris-HCl buffer. The enzyme activity was determined by monitoring the change per minute in absorbance at 340 nm while the sample was reacted in the presence of NAD(H) and ribitol.
# Then, dynamical parameters were measured through a nonlinear regression analysis.
# [2] = substrate: NC(=O)c1ccc[n+]([C@@H]2O[C@H](COP(=O)(O)OP(=O)(O)OC[C@H]3O[C@@H](n4cnc5c(N)ncnc54)[C@H](OP(=O)(O)O)[C@@H]3O)[C@@H](O)[C@H]2O)c1; assay: Dynamical parameters to coenzyme, variant S156C; type: biochemical, Zymomonas mobilis; conditions: other: NADP 0.01 to 3 mM, ribitol, pH 9.0
# Description: (§1) There were no differences between the expression amount of various amino acid variants of Ser 156 and the expression amount of wide-type. The dynamical parameter of each of variants was confirmed using the above variants.
# [3] = substrate: NC(=O)c1ccc[n+]([C@@H]2O[C@H](COP(=O)(O)OP(=O)(O)OC[C@H]3O[C@@H](n4cnc5c(N)ncnc54)[C@H](OP(=O)(O)O)[C@@H]3O)[C@@H](O)[C@H]2O)c1; assay: Dynamical parameters to coenzyme, variant S156D; type: biochemical, Zymomonas mobilis; conditions: other: NADP 0.01 to 3 mM, ribitol, pH 9.0
# Description: In addition, the present invention provides a ribitol dehydrogenase mutant selected from the group consisting of a) a mutant, in which serine, an amino acid at position 156 of the ribitol dehydrogenase having an amino acid sequence as set forth in SEQ ID NO: 4 is substituted with aspartic acid; and b) a mutant, in which tyrosine, an amino acid at position 51 of the ribitol dehydrogenase having an amino acid sequence as set forth in SEQ ID NO: 4 is substituted with aspartic acid and serine, an amino acid at position 156 is substituted with alanine.
# The mutants have preferably amino acid sequences as set forth in SEQ ID NOS: 5 and 6, respectively, but the present invention is not limited thereto.
# as §1
# [4] = substrate: NC(=O)c1ccc[n+]([C@@H]2O[C@H](COP(=O)(O)OP(=O)(O)OC[C@H]3O[C@@H](n4cnc5c(N)ncnc54)[C@H](OP(=O)(O)O)[C@@H]3O)[C@@H](O)[C@H]2O)c1; assay: Dynamical parameters to coenzyme, variant S156G; type: biochemical, Zymomonas mobilis; conditions: other: NADP 0.01 to 3 mM, ribitol, pH 9.0
# Description: as §1
# [5] = Production of L-ribulose from ribitol with cell bodies of recombinant strains expressing the variants; type: cell-based, E. coli; conditions: whole cells, 25° C., 6 hours
# Method: The following experiments were performed in order to produce L-ribulose using a ribitol dehydrogenase variant having double coenzyme specificity. The variants prepared by using the method of Example 5-3 were expressed using the method of Example 2; the cell bodies were only collected by centrifuging (8000×g for 10 minutes) the recombinant strain culture solution; and then the cell bodies were washed with distilled water twice. The final Cell OD was measured and the same amount of cells was used for a production experiment. The ribitol and each of recombinant enzyme variants were subjected to an enzyme reaction in 20 mM of Tris-HCl buffer (pH 9.5) at a temperature of 25° C. for 6 hours.
# [6] = substrate: NC(=O)c1ccc[n+]([C@@H]2O[C@H](COP(=O)(O)OP(=O)(O)OC[C@H]3O[C@@H](n4cnc5c(N)ncnc54)[C@H](OP(=O)(O)O)[C@@H]3O)[C@@H](O)[C@H]2O)c1; assay: Dynamical parameters to coenzyme, variant S156A; type: biochemical, Zymomonas mobilis; conditions: other: NADP 0.01 to 3 mM, ribitol, pH 9.0
# Description: as §1
# [7] = substrate: NC(=O)c1ccc[n+]([C@@H]2O[C@H](COP(=O)(O)OP(=O)(O)OC[C@H]3O[C@@H](n4cnc5c(N)ncnc54)[C@H](OP(=O)(O)O)[C@@H]3O)[C@@H](O)[C@H]2O)c1; assay: Dynamical parameters to coenzyme, variant S156T; type: biochemical, Zymomonas mobilis; conditions: other: NADP 0.01 to 3 mM, ribitol, pH 9.0
# Description: as §1
# [8] = substrate: NC(=O)c1ccc[n+]([C@@H]2O[C@H](COP(=O)(O)OP(=O)(O)OC[C@H]3O[C@@H](n4cnc5c(N)ncnc54)[C@H](OP(=O)(O)O)[C@@H]3O)[C@@H](O)[C@H]2O)c1; assay: Dynamical parameters to coenzyme, variant S156E; type: biochemical, Zymomonas mobilis; conditions: other: NADP 0.01 to 3 mM, ribitol, pH 9.0
# Description: as §1
# [9] = substrate: NC(=O)c1ccc[n+]([C@@H]2O[C@H](COP(=O)(O)OP(=O)(O)OC[C@H]3O[C@@H](n4cnc5c(N)ncnc54)[C@H](OP(=O)(O)O)[C@@H]3O)[C@@H](O)[C@H]2O)c1; assay: Dynamical parameters to coenzyme, variant S156W; type: biochemical, Zymomonas mobilis; conditions: other: NADP 0.01 to 3 mM, ribitol, pH 9.0
# Description: as §1
# [10] = substrate: NC(=O)c1ccc[n+]([C@@H]2O[C@H](COP(=O)(O)OP(=O)(O)OC[C@H]3O[C@@H](n4cnc5c(N)ncnc54)[C@H](OP(=O)(O)O)[C@@H]3O)[C@@H](O)[C@H]2O)c1; assay: Dynamical parameters to coenzyme, variant S156Y; type: biochemical, Zymomonas mobilis; conditions: other: NADP 0.01 to 3 mM, ribitol, pH 9.0
# Description: as §1
# [11] = metal ion 10 mM, enzyme treated with 10 mM EDTA for 24 hours and dialyzed
molecule,measurement,setting,value
[Cl][Mn][Cl] [MnCl2],Relative activity (%) 10 mM,ribitol dehydrogenase; [11],100%
same,activity of enzyme in the presence of metal ion (in words),"ribitol dehydrogenase; metal ion 10 mM, listed as Mn^2+",maximum enzyme activity; also recorded: the activity of enzyme was observed
[Cl-].[Cl-].[Zn+2] [ZnCl2],Relative activity (%) 10 mM,ribitol dehydrogenase; [11],0.3%
[Cl-].[Cl-].[Co+2] [CoCl2],Relative activity (%) 10 mM,ribitol dehydrogenase,62.5%
same,activity of enzyme in the presence of metal ion (in words),ribitol dehydrogenase,maximum enzyme activity; also recorded: the activity of enzyme was observed
NC(=O)c1ccc[n+]([C@@H]2O[C@H](COP(=O)(O)OP(=O)(O)OC[C@H]3O[C@@H](n4cnc5c(N)ncnc54)[C@H](OP(=O)(O)O)[C@@H]3O)[C@@H](O)[C@H]2O)c1 [NADP^+],kcat (NADP^+),[1],2.79 ± 0.15 s⁻¹
[Cl][Fe]([Cl])[Cl] [FeCl3],Relative activity (%) 10 mM,ribitol dehydrogenase; [11],0.2%
[Cl-].[Cl-].[Mg+2] [MgCl2],Relative activity (%) 10 mM,ribitol dehydrogenase; [11],0.4%
O=S(=O)([O-])[O-].[Cu+2] [CuSO4],Relative activity (%) 10 mM,ribitol dehydrogenase; [11],0.1%
[Ca+2].[Cl-].[Cl-] [CaCl2],Relative activity (%) 10 mM,ribitol dehydrogenase; [11],1.1%
B1,Km,[2],170 ± 20 µM
same,kcat,[2],2.05 ± 0.10 s⁻¹
same,kcat/Km,[2],12100 M⁻¹ s⁻¹
B2,Km,[3],300 ± 30 µM
same,kcat,[3],2.46 ± 0.21 s⁻¹
same,kcat/Km,[3],8200 M⁻¹ s⁻¹
B3,Km,[4],340 ± 70 µM
same,kcat,[4],0.72 ± 0.08 s⁻¹
same,kcat/Km,[4],2120 M⁻¹ s⁻¹
B4,"L-ribulose produced, concentration","[5]; 20 mM Tris-HCl buffer pH 9.5, HPLC",1.21 g/L
same,conversion rate of L-ribulose in the whole cell level compared with wild-type (in words),[5]; pH 9.5,higher
B5,Km,[6],390 ± 130 µM
same,kcat,[6],1.19 ± 0.07 s⁻¹
same,kcat/Km,[6],3050 M⁻¹ s⁻¹
B6,Km,[7],220 ± 30 µM
same,kcat,[7],1.64 ± 0.22 s⁻¹
same,kcat/Km,[7],7450 M⁻¹ s⁻¹
B7,Km,[8],350 ± 40 µM
same,kcat,[8],2.39 ± 0.15 s⁻¹
same,kcat/Km,[8],6830 M⁻¹ s⁻¹
B8,Km,[9],210 ± 30 µM
same,kcat,[9],2.05 ± 0.11 s⁻¹
same,kcat/Km,[9],9760 M⁻¹ s⁻¹
B9,Km,[10],230 ± 130 µM
same,kcat,[10],1.42 ± 0.16 s⁻¹
same,kcat/Km,[10],6170 M⁻¹ s⁻¹

# From US9005937B2, “Dual cofactor specific ribitol dehydrogenase and use thereof” (Konkuk University Industrial Cooperation Corp., priority 2011, dated 2015)
